Measurements: paper PMC12329532

Target: N-terminally His6-tagged human IDO1 (indoleamine 2,3-dioxygenase 1), purified apo-IDO1 (human) (UniProt P14902)
Sequence (P14902 whole entry): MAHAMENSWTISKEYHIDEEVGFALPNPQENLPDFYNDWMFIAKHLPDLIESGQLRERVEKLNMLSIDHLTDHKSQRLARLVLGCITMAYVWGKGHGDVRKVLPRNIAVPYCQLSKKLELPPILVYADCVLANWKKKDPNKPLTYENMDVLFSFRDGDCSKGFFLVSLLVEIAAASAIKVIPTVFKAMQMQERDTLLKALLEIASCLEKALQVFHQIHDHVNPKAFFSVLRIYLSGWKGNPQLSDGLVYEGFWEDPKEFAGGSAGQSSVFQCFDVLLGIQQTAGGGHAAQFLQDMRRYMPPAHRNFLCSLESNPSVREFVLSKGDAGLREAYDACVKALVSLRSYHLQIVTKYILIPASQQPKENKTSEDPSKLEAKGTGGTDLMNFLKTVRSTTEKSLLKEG

IDO1 catalytic activity after the heme transfer reaction with the TC-GAPDH-heme complex: 2 fold
decrease in heme content of TC-GAPDH (UV-vis) after 30 min at 37 °C with apo-IDO1 and separation by gel filtration: 50%
Substance: human recombinant TC-GAPDH (GAPDH with a tetra-Cys insertion sequence near its heme binding site), wild type, purified (from UniProt P04406 1-335) (enzyme)
